{"source": "paper PMC5566955", "key": {"[1]": {"molecular_target": "MacQ heterodimer consisting of an α-chain and a β-chain (wild-type, cleaved form) (Acidovorax sp. strain MR-S7)", "test": "crystal structure; wild-type MacQ, ligand-free and with the reaction products C10 and PAA; crystals at 20 °C from 100 mM Tris-HCl pH 7.5–8.5, 0.1–0.2 M calcium acetate, 14–18% PEG 3350"}, "[2]": {"molecular_target": "MacQ heterodimer consisting of an α-chain and a β-chain (wild-type, cleaved form) (Acidovorax sp. strain MR-S7)", "test": "SEC; analytical gel filtration, Superose 6 10/300 GL, 50 mM sodium phosphate pH 8.0, 200 mM NaCl, 0.4 mL/min"}}, "data": [{"substance": "MacQ heterodimer consisting of an α-chain and a β-chain (wild-type, cleaved form) (complex)", "values": [{"measurement": "stoichiometry N", "setting": "[1]", "value": 2}, {"measurement": "stoichiometry N", "setting": "[2]", "value": 2}]}]}
